# Experiment: label from the status in PepcDB records
row,Sequence,protein production
1,MALPPILRDRLRLPVIASPLFIISNPDLVIAQCKAGIVGSFPSLNARPLSQLDEWLARITEELAAWDKANPDMPSAPFAVNQIVHKTNNRLEDDIAMCVKYKVPLVITSLGAREDVNQAIHSYGGITLHDVITDRFARKAIEKGADGLIPVAAGAGGHAGTLSPFALIQEIRQWFDGPVALSGSIASGRSILAAQAMGADLAYVGSAFIATKEANAVEGYKQMIVDSKADDILYSNLFTGVHGNYLRPSVIKAGLDPENLPESDPSKMNFGSGGNQDAKAWRDIWGCGQGIGAIDNVLTAGELVAKFAAEYEQAKAELAAKTALTAGKHLAFAAE,failed
2,MKDAKSFNDLYKASIYTMLGSIYAPSGGVIAAPTTSLPEVEGGKRNWDYRFAWVRDSSIIAEALLEAGSIVEARRIINFLLSLINFSSKPFYYPLYTIEGTIPPPERELRWLSGYKNSKPVRIGNGASSQIQLDIEGFFISALYKYVKMTNDQVFLKDVFSKVKYIGDWISENWSLKDSGIWEDRGSPQHYTHSKIMMWIALDKIGKLANLIGYADIWAKEREKLRNWIFTNCVKNNYFIRYCGNTDDVDSSLLSAPLYGFIEVSDSTFINTLTKIENDLKTDVFVKRYKTDFMGEAKHPFLLTTVWLARVYMRLGKIDSAIEILNKINKVSRELHLVGEHVDVEKGEFTGNFPQIFVHAQLVIAIKELNDTLEHHHHHH,failed
3,MARVLVDFQPVGRRVEVDAGQTILSAIQQLGLSLGAGGLTAPCGGRGLCGRCRVRIASGEVGEVNPAERRFLTPAQLEKGYRLACQATVIGPVKVEIPPESMLGVQKLQVEGLDIAVTPEPPVKRYNLPLSKTTIENPLPLWQQVTGELEATYGLDRPGVDFGLAREWKPMATEGECVVTVRGPEVINIYTGRLAPPPVGLAVDLGTTKVAGFLINLETGATLAADGIMNPQITYGEDVMARLGYALEGEEEYRRIQEVEIEGLNRLAATLAAKAGVATTDIEEAVIVGNTAMHHLLLHLPVEQLARAPYVPALTTPVEIKTRNLGLNLSPGAFVYLQPVIAGFVGGDHVAMILGSRIDEARKVTLGLDIGTNTEIVLSYGGKMLSCSCASGPAFEGAHIAQGMRAVTGAIAAVRLSDDGRDVFWESIGGVPPLGICGSGILDAVAELYRTGILNASGRLDLNHPRVRRPAGGGPPEFLLVPAAETGIDGDLVVTQKDINEIQLAKAAIATGTLLLLEAAGLTVKDLEEVVVAGAFGTHLKLESAITIGMFPNLPLTAFRQVGNAAGTGARLALLSLTERKRGEAIARQVGYLELMTRPSFHEVYVKSLLLP,failed
4,MLLLHNARILDLTDGSTGEPTDVLLSDRVLALGPEAQQQAHSARVRSIDLGGRLLMPGLWDEHVHVGQWALASRRFLVSQTASCETALEEVATHVKRREGSDEPILQGFGFRPSLWGSNPNARQLDAVTGDRAVILVSADLHSSWCNTAAMRKLGIEGDGFLREQTSFDVQTQLSQVNPHVLDGWVGSCSTAAARLGITGIRDMEFSTDVETWLQRKADGRCPLRVEVSVYPERLDEAIAQVLATGQAPATDKPGPSRVAMGPLKVIVDGSMSTRTAWCMDSYPAGAGPDGAGIDSVTPEDLVDLMNRAKTGNLQCAAHAIGDRAAKEVLNAFEVTGISGSIEHAQVLTDADVRRFAALGVRASVQPLHLVDDRDATDVMWSDRADRCFRFADMVRAGTELALGSDAPVSPVDPWGAIRVAVERTGDRRPSWHPEQALTLSQAITASTRHVTQVVTGGPGDVIAVAHNPFDLSGNALAGITSDLTVVGGEVTAAAL,failed
5,MGHHHHHHSHMSGEKTVVCKHWLRGLCKKGDQCEFLHEYDMTKMSECYFYSKFGECSNKECPFLHIDPESKI,not failed
6,STAFFFRRMSPADKRKLLDELRSIYRTIVLEYFNTDAKVNERIDEFVSKAFFADISVSQVLEIHVELMDTFSKQLKLEGRSEDILLDYRLTLIDVIAHLCEMYRRSIPREV,not failed
7,MSNDVDLIKRLGPSAMDQIMLYLAFSAMRTSGHRHGAFLDAAATAAKCAIYMTYLEQGQNLRMTGHLHHLEPKRVKAIVEEVRQALTEGKLLKMLGSQEPRYLIQFPYVWMEKYPWRPGRSRIPGTSLTSEEKRQIEQKLPSNLPDAHLITSFEFLELIEFLHKRSQEDLPKEHQMPLSEALAEHIKRRLLYSGTVTRIDSPWGMPFYALTRPFYAPADDQERTYIMVEDTARFFRMMRDWAEKRPNTMRVLEELDILPEKMQQAKDELDEIIRAWADKYHQDDGVPVVLQMVFGKKED,not failed
8,MCTEFWNSFSNLFTGGRSTNRKIILVLLIMVLSSGVCSADNYVGGIPLTSAHSGTVSGGVYCDSYYGMGDQEAKASNTIEKTFTVPDNANVEWAMLLTNVYCGHMQNNYQGKAKVDFNGKNLGTETLNVPYTYSYNGGNGHVQVNDHVNRVTSDYMMYYDVTGLVKAGKNTAVVKTDPLDSSFDGRIRLVTLVVAYNDGSKKTIWYQVNRGHDADSYYSDDEMNENYIGSTAFQAALPEGSSLTDSKLTLVYQASSDGAYAFNGNALSSGTPQGTFSGSNTWDVKDSLKSSGTNTLTYDRTASFYKSVLGILTAEYTTSSSGDSTDDTPADNTTDNGSAGDTTDDISSDNTTNDTSSDNTTSDVPAGNTTNDTPADNTTDAKFSADLGVQAIKVSHNSAAKAWKNLVNTVNVTVINNGPEKAGSFALELYSEGSLLESKPINGLANGATEAVEFVWKPEDAKNYTLRAVVVPGSTINDANATNNELSKTQEVMHNGYIGDKPLETYLHGTVKGNIIYDYGNSSYVKVSSGDVYTAGHSLSLPEGAIVKYARLYNFWTWSATGSSGVIPSMSLDFAGSSLTPEAEYADQKGWGQYDYPTGTWAYNVTGLVSGSGNYITTVKNTNSDAENSFCIDGIALLVVYEDASGKETQYWINEGCDAVSTMSSSGGLTPDEATVKIAFAGDSIDLGNVDNARLWTTVQSGGHEGIALKFNEMSISGVYDSTPSSNLDIDEARDVTSYLLSQNNEAQIIAPSVTDNSGDYMIPSSAILAVSYKSETTDDTNITDDTNVTDDTNVTDGTNVTDDTNVTDGTNVTNDTNVTNDTNVTNDTNVTNDTNVTNDTNVTNDTNVTDDTNVTDGTNVTDGTNVTIDTNVTIDTNVTIDTNVTDNTNVTDDTNMKDDTNVTLKVNIIPVISLTVSPDSLDFGTVSPGTPSESLPLALKNNGGISIKVTAEVHDQENGPFATGLLLDQNIWSNYSKVLAAESAETSQAQLDLPLNYSSTGQFQGTLSLWAEAA,failed
9,MVFLKRFRAYGFKSYADEITINFTHSMTGIVGPNGSGKSNVVDALKWVLGERSMKHLRSKSGDDMIFFGSKDKPASKLAEVELTFDNSQKLLHDPRPEISVMRRIYRGSGQSEYYINGELVTLKEISGIFADIGLEKGSLGIISQGSVSFVEAKPEERRKIFEDASGIGRYTKRKEEVTNQLARTVQNLKQVSIVLNELKKDLKKLTIQADKAQRFVKLKEELKELELSVLVADYLKSQGELDRFNHQIGYIEQDFKLHEPQLQLLEDQLNIFNQRFRDADEQSIKLQQELQAVYQTINELEQRKAVIDVQLKNELSKKDEKHKIQALKKLIRVDQAQLESLQAQVLKTTSEITLLTNELSTVQTELDTTKLNLNQNSAALVYQQAQQEFLKAQNEEWVKTNPAHVLVKNVKALTGLLNTLNTFLKFEKQYEKALLKALGKSIGYLVVNNNLAALKAIDFLLTNQIGQVTFLPIDDIAFDTKIAPEHMEILQQLDGFLGVGSDHVSCDESLQPIVNALLGQVIIASDLQAALKLSSYTYKLYRVVTLNGETVYAGGIIQGGYVKDNLSLYNLQEKLASSEANITQLEHNEKQLRTNLTSLETKLNELNKKLKYEEILLEKFNERVNHTNKAILSYKIEYEQLTNESFDGTPHSFDETRLVESLNRAWAERDELNSQLKLNQELKETLAKSIKLAEAKTADLRALLDEQRSQLVLAREGKIRFENTIHNITDKINGGYKLTMEFAIANYNKPIKLSTMQAQNKIARMQSQLDEMGPINLESIAEIADKQKRFDDINGEYESLQTAIKDLQTAIGEIDELACKEFDELIQKVNAELPKTFNYLFGGGSCQIRYTDTDNVLLSGIEVFANPPGKNVANLMLLSGGEKTLVALSVLFSILRVSAFPLVILDEAESALDPANVERFANIIGNSSNNTQFLIITHRQGTMMKCDMLLGAAMQTKGVTKTFAVSLEKAEQYISKDKQN,failed

# From a protein production outcome set (Wang et al. 2014)
